Reference: article PMC4658230

B1: mtCYP2E1 (Rattus norvegicus) (protein)
chain: AVLGITIALLVWVATLLVISIWKQIYNSWNLPPGPFPLPILGNIFQLDLKDIPKSFTKLAKRFGPVFTLHLGSRRIVVLHGYKAVKEVLLNHKNEFSGRGDIPVFQEYKNKGIIFNNGPTWKDVRRFSLSILRDWGMGKQGNEARIQREAQFLVEELKKTKGQPFDPTFLIGCAPCNVIADILFNKRFDYNDKKCLRLMSLFNENFYLLSTPWIQLYNNFADYLRYLPGSHRKIMKNVSEIKQYTLEKAKEHLQSLDINCARDVTDCLLIEMEKEKHSQEPMYTMENVSVTLADLFFAGTETTSTTLRYGLLILMKYPEIEEKLHEEIDRVIGPSRVPAVRDRLDMPYMDAVVHEIQRFINLVPSNLPHEATRDTVFQGYVIPKGTVVIPTLDSLLYDSHEFPDPEKFKPEHFLNENGKFKYSDYFKAFSAGKRVCVGEGLARMELFLLLSAILQHFNLKSLVDPKDIDLSPVTVGFGSIPPQFKLCVIPRS
B2: erCYP2E1 (Rattus norvegicus) (protein)
chain: MAVLGITIALLVWVATLLVISIWKQIYNSWNLPPGPFPLPILGNIFQLDLKDIPKSFTKLAKRFGPVFTLHLGSRRIVVLHGYKAVKEVLLNHKNEFSGRGDIPVFQEYKNKGIIFNNGPTWKDVRRFSLSILRDWGMGKQGNEARIQREAQFLVEELKKTKGQPFDPTFLIGCAPCNVIADILFNKRFDYNDKKCLRLMSLFNENFYLLSTPWIQLYNNFADYLRYLPGSHRKIMKNVSEIKQYTLEKAKEHLQSLDINCARDVTDCLLIEMEKEKHSQEPMYTMENVSVTLADLFFAGTETTSTTLRYGLLILMKYPEIEEKLHEEIDRVIGPSRVPAVRDRLDMPYMDAVVHEIQRFINLVPSNLPHEATRDTVFQGYVIPKGTVVIPTLDSLLYDSHEFPDPEKFKPEHFLNENGKFKYSDYFKAFSAGKRVCVGEGLARMELFLLLSAILQHFNLKSLVDPKDIDLSPVTVGFGSIPPQFKLCVIPRS

Legend:
Assay in all cases: cells, lysate or membranes named
[1] = substrate: O=[N+]([O-])c1ccc(O)cc1; conditions: 1 mM NADPH, 37°C, pH 7.4
[2] = substrate: C=Cc1ccccc1; conditions: pH 7.4; 37.0 °C
[3] = substrate: Nc1ccccc1; conditions: 1 mM NADPH, 37°C, pH 7.4
[4] = other: rat liver mitochondria 2 mg/mL
[5] = other: rat liver microsomes 0.5 mg/mL

Protein	Km [1, 4]	kcat [1, 4]	Km [2]	Km [3, 4]	kcat [3, 4]	Km [1, 5]	kcat [1, 5]	Km [3, 5]
B1	28 (24 to 33) μM	110 (100 to 110) pmol/min/pmol CYP2E1	45 (36 to 56) μM	10 (7.5 to 12) μM	52 (49 to 54) pmol/min/pmol CYP2E1			
B2			100 (31 to 2600) μM			28 (24 to 34) μM	940 (880 to 1000) pmol/min/pmol CYP2E1	2.1 (0.010 to 5.2) μM
